The text below walks through data of paper PMC7566476, “MYB61 is regulated by GRF4 and promotes nitrogen utilization and biomass production in rice”.

For data set [1], the target named is T1, GST-GRF4 (UniProt Q6ZIK5).
T1 sequence: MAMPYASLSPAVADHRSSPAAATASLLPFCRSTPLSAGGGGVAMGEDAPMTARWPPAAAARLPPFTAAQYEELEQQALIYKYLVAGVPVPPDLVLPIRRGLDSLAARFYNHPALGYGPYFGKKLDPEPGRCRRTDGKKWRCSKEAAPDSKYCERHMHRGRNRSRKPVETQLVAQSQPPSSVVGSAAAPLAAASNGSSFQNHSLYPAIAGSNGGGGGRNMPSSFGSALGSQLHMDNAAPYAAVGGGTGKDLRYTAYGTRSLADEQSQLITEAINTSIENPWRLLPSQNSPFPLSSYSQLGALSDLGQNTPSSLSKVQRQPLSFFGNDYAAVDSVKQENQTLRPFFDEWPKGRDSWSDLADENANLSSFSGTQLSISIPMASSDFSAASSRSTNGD
Description: EMSA. To be noted: EMSA binding buffer (Beyotime; composition, salt and pH not given), 4 °C; unlabeled competitor 50-, 100- and 500-fold.

For data set [2], the target named is T2, GST-GRF4 (UniProt Q6ZIK5 1-394).
T2 sequence: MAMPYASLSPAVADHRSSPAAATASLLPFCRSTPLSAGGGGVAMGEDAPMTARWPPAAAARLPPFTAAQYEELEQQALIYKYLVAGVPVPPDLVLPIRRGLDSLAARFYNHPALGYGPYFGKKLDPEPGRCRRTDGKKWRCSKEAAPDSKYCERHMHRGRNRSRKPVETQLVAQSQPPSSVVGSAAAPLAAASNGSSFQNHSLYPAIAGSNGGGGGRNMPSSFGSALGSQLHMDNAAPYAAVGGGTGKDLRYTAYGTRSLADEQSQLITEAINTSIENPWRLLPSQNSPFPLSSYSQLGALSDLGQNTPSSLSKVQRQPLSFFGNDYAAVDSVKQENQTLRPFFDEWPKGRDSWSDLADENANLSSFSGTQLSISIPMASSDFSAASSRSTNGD
As to the kind of experiment: EMSA; EMSA binding buffer (Beyotime; composition, salt and pH not given), 4 °C; unlabeled competitor 50-, 100- and 500-fold. To be noted: protein: recombinant; tags: N-terminal GST (pGEX-6P-1); label: biotin; blunt. Background: Mobility shift assays separate free from complexed probe on a gel.

On to “AATCTGTGCTCCAATCCAAGAAGATCATCTCTGGCACCTCTCAAGATGCTAAGCAATCAGCTGTGAGAACCAGGCCTATGCTGATGATTGCTTTTGCAGAGTTACAAACAGCATGATTTCCTCACTGGCCGTATTCTCGCTCAGAAGCAAATCCCAAT (double strand) [MYB61 promoter P1 fragment]”, for which the binding entry with GST-GRF4 [1] is “no binding”.

B1: MYB61 promoter motif 2 probe (within P8) (dsDNA)
DNA 1: CAAAAAGGCTGCGGTAATTAAGTCACAGTA
DNA 2: TACTGTGACTTAATTACCGCAGCCTTTTTG
B1: the binding result with GST-GRF4 [2] is on record as “binds”.
